± gives the standard deviation of the averaged measurements.
What was measured:
[1] = test system: MCF7; experiment: percentage of EdU-negative (G0-arrested) nuclei per well, 72 h; higher = more G0 arrest; settings: reference: sequence is the full UniProt precursor, the tested protein was the secreted form or ectodomain
[2] = test system: hTERT-HMEC; experiment: as above; settings: reference: sequence is the full UniProt precursor, the tested protein was the secreted form or ectodomain
[3] = protein concentration 0.0131429 µM
[4] = protein concentration 0.131429 µM
[5] = protein concentration 0.028295 µM
[6] = protein concentration 0.28295 µM
[7] = protein concentration 0.0257143 µM
[8] = protein concentration 0.257143 µM
[9] = protein concentration 0.0225 µM
[10] = protein concentration 0.0357143 µM
[11] = protein concentration 0.357143 µM
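Further: secreted proteins added to cultured cells, EdU pulse at the end, nuclei found by Hoechst imaging, EdU status from nuclear versus surrounding ring intensity ratio, PBS as neutral control.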

Sequence: MAPPLRPLARLRPPGMLLRALLLLLLLSPLPGVWCFSELSFVKEPQDVTVTRKDPVVLDCQAHGEVPIKVTWLKNGAKMSENKRIEVLSNGSLYISEVEGRRGEQSDEGFYQCLAMNKYGAILSQKAHLALSTISAFEVQPISTEVHEGGVARFACKISSHPPAVITWEFNRTTLPMTMDRITALPTGVLQIYDVSQRDSGNYRCIAATVAHRRKSMEASLTVIPAKESKSFHTPTIIAGPQNITTSLHQTVVLECMATGNPKPIISWSRLDHKSIDVFNTRVLGNGNLMISDVRLQHAGVYVCRATTPGTRNFTVAMATLTVLAPPSFVEWPESLTRPRAGTARFVCQAEGIPSPKMSWLKNGRKIHSNGRIKMYNSKLVINQIIPEDDAIYQCMAENSQGSILSRARLTVVMSEDRPSAPYNVHAETMSSSAILLAWERPLYNSDKVIAYSVHYMKAEGLNNEEYQVVIGNDTTHYIIDDLEPASNYTFYIVAYMPMGASQMSDHVTQNTLEDVPLRPPEISLTSRSPTDILISWLPIPAKYRRGQVVLYRLSFRLSTENSIQVLELPGTTHEYLLEGLKPDSVYLVRITAATRVGLGESSVWTSHRTPKATSVKAPKSPELHLEPLNCTTISVRWQQDVEDTAAIQGYKLYYKEEGQQENGPIFLDTKDLLYTLSGLDPRRKYHVRLLAYNNIDDGYQADQTVSTPGCVSVRDRMVPPPPPPHHLYAKANTSSSIFLHWRRPAFTAAQIINYTIRCNPVGLQNASLVLYLQTSETHMLVQGLEPNTKYEFAVRLHVDQLSSPWSPVVYHSTLPEAPAGPPVGVKVTLIEDDTALVSWKPPDGPETVVTRYTILYASRKAWIAGEWQVLHREGAITMALLENLVAGNVYIVKISASNEVGEGPFSNSVELAVLPKETSESNQRPKRLDSADAKVYSGYYHLDQKSMTGIAVGVGIALTCILICVLILIYRSKARKSSASKTAQNGTQQLPRTSASLASGNEVGKNLEGAVGNEESLMPMIMPNSFIDAKGGTDLIINSYGPIIKNNSKKKWFFFQDSKKIQVEQPQRRFTPAVCFYQPGTTVLISDEDSPSSPGQTTSFSRPFGVAADTEHSANSEGSHETGDSGRFSHESNDEIHLSSVISTTPPNL [Q2VWP7]
- percentage of EdU-negative [1, 3]: 25.8 ± 0.61%
- percentage of EdU-negative [1, 4]: 25.2 ± 1.5%
- percentage of EdU-negative [2, 3]: 4.73 ± 0.2%
- percentage of EdU-negative [2, 4]: 5.16 ± 0.39%

Sequence: MAPPQVLAFGLLLAAATATFAAAQEECVCENYKLAVNCFVNNNRQCQCTSVGAQNTVICSKLAAKCLVMKAEMNGSKLGRRAKPEGALQNNDGLYDPDCDESGLFKAKQCNGTSMCWCVNTAGVRRTDKDTEITCSERVRTYWIIIELKHKAREKPYDSKSLRTALQKEITTRYQLDPKFITSILYENNVITIDLVQNSSQKTQNDVDIADVAYYFEKDVKGESLFHSKKMDLTVNGEQLDLDPGQTLIYYVDEKAPEFSMQGLKAGVIAVIVVVVIAVVAGIVVLVISRKKRMAKYEKAEIKEMGEMHRELNA
- percentage of EdU-negative [1, 5]: 26.6 ± 1.3%
- percentage of EdU-negative [1, 6]: 26.1 ± 0.38%
- percentage of EdU-negative [2, 5]: 4.24 ± 0.27%
- percentage of EdU-negative [2, 6]: 7.81 ± 1.4%

Sequence: MAPPSVPLVLLLVLLLSLAETPASAPAHRGRGGWTLNSAGYLLGPVLHLPQMGDQDGKRETALEILDLWKAIDGLPYSHPPQPSKRNVMETFAKPEIGDLGMLSMKIPKEEDVLKS [Q9UBC7]
- percentage of EdU-negative [1, 7]: 25.7 ± 2.2%
- percentage of EdU-negative [1, 8]: 27.5 ± 3%
- percentage of EdU-negative [2, 7]: 5.31 ± 1.9%
- percentage of EdU-negative [2, 8]: 6.11 ± 0.2%

Sequence: MAPRARRRRPLFALLLLCALLARLQVALQIAPPCTSEKHYEHLGRCCNKCEPGKYMSSKCTTTSDSVCLPCGPDEYLDSWNEEDKCLLHKVCDTGKALVAVVAGNSTTPRRCACTAGYHWSQDCECCRRNTECAPGLGAQHPLQLNKDTVCKPCLAGYFSDAFSSTDKCRPWTNCTFLGKRVEHHGTEKSDAVCSSSLPARKPPNEPHVYLPGLIILLLFASVALVAAIIFGVCYRKKGKALTANLWHWINEACGRLSGDKESSGDSCVSTHTANFGQQGACEGVLLLTLEEKTFPEDMCYPDQGGVCQGTCVGGGPYAQGEDARMLSLVSKTEIEEDSFRQMPTEDEYMDRPSQPTDQLLFLTEPGSKSTPPFSEPLEVGENDSLSQCFTGTQSTVGSESCNCTEPLCRTDWTPMSSENYLQKEVDSGHCPHWAASPSPNWADVCTGCRNPPGEDCEPLVGSPKRGPLPQCAYGMGLPPEEEASRTEARDQPEDGADGRLPSSARAGAGSGSSPGGQSPASGNVTGNSNSTFISSGQVMNFKGDIIVVYVSQTSQEGAAAAAEPMGRPVQEETLARRDSFAGNGPRFPDPCGGPEGLREPEKASRPVQEQGGAKA [Q9Y6Q6]
- percentage of EdU-negative [1, 9]: 24 ± 1.9%
- percentage of EdU-negative ([1]; protein concentration 0.225 µM): 25.6 ± 1.8%
- percentage of EdU-negative [2, 9]: 5.19 ± 0.68%
- percentage of EdU-negative ([2]; protein concentration 0.225 µM): 5.83 ± 0.025%

Sequence: MAPRGCIVAVFAIFCISRLLCSHGAPVAPMTPYLMLCQPHKRCGDKFYDPLQHCCYDDAVVPLARTQTCGNCTFRVCFEQCCPWTFMVKLINQNCDSARTSDDRLCRSVS [Q6UW32]
- percentage of EdU-negative [1, 10]: 24.2 ± 1.9%
- percentage of EdU-negative [1, 11]: 25.5 ± 0.59%
- percentage of EdU-negative [2, 10]: 4.73 ± 0.98%
- percentage of EdU-negative [2, 11]: 5.65 ± 1.1%

— the supplement of paper PMC11316812
